In article PMC3343272, “Asymmetric Mode of Ca^2+-S100A4 Interaction with Nonmuscle Myosin IIA Generates Nanomolar Affinity Required for Filament Remodeling” (Structure(London, England:1993), 2012):
Where “and” joins values, the source holds several entries; their conditions need not be identical. Equal entries are not always repeated. Where two headings read alike, the source gives them in different places.

B1: M39 peptide of nonmuscle myosin IIA heavy chain (residues Q1897-A1935) (peptide)
peptide: QRELEDATETADAMNREVSSLKNKLRRGDLPFVVPRRMA
notes: nonmuscle myosin IIA heavy chain (NM-MHC IIA), residues Q1897-A1935; also called u-M39; WT M39; source: synthetic peptide; bought: GL Biochem Ltd (Shanghai, China), purity >95% by HPLC
B2: M39, nonmuscle myosin IIA heavy chain peptide (residues Q1897–A1935) (peptide, UniProt P35579 1897-1935, looked up)
peptide: B1 peptide
notes: nonmuscle myosin IIA (NMIIA) heavy chain, residues Q1897-A1935; Unmodified (no fluorescent label); also called u-M39; source: synthetic peptide
B3: S100A4 V77D (natural protein)
chain: MACPLEKALDVMVSTFHKYSGKEGDKFKLNKSELKELLTRELPSFLGKRTDEAAFQKLMSNLDSNRDNEVDFQEYCDFLSCIAMMCNEFFEGFPDKQPRKK
notes: source: expressed and purified as described previously (Badyal et al., 2011)
B4: S100A4 C81D (natural protein)
chain: not shown
notes: as for B3
B5: M70 fragment of nonmuscle myosin IIA heavy chain (residues A1868-G1938) (domain or fragment, UniProt P35579 1868-1938, looked up)
chain: ASTRLKQLKRQLEEAEEEAQRANASRRKLQRELEDATETADAMNREVSSLKNKLRRGDLPFVVPRRMARKG
notes: nonmuscle myosin IIA heavy chain, residues A1868-G1938; small print, not read surely; also called u-M70; 15N-M70; source: recombinant; expressed and purified as described previously (Badyal et al., 2011)
B6: M70, nonmuscle myosin IIA heavy chain fragment (residues A1868–G1938) (domain or fragment, UniProt P35579 1868-1938, looked up)
chain: B5 chain
notes: nonmuscle myosin IIA (NMIIA) heavy chain, residues A1868-G1938; also called u-M70; 13C,15N-M70; source: recombinant, unlabeled, 15N-labeled and 13C,15N-labeled
B7: S100A4 (natural protein)
chain: not shown
notes: S100A4; the NMR analysis speaks of residues 1-101; The His-tag is named only for the SPR experiment (two His-tags in the dimer); also called WT S100A4; u-S100A4; source: expressed and purified as described previously (Badyal et al., 2011)
B8: M111 fragment of nonmuscle myosin IIA heavy chain (residues Q1850-E1960) (domain or fragment, UniProt P35579 1850-1960, looked up)
chain: QVDDERRNAEQYKDQADKASTRLKQLKRQLEEAEEEAQRANASRRKLQRELEDATETADAMNREVSSLKNKLRRGDLPFVVPRRMARKGAGDGSDEEVDGKADGAEAKPAE
notes: nonmuscle myosin IIA heavy chain, residues Q1850-E1960; source: expressed and purified as described previously (Badyal et al., 2011)
B9: M111, nonmuscle myosin IIA heavy chain fragment (residues Q1850–E1960) (domain or fragment, UniProt P35579 1850-1960, looked up)
chain: B8 chain
notes: nonmuscle myosin IIA (NMIIA) heavy chain, residues Q1850-E1960
B10: M200 fragment of nonmuscle myosin IIA heavy chain (Q1761-E1960) (domain or fragment, UniProt P35579 1761-1960, looked up)
chain: QINTDLNLERSHAQKNENARQQLERQNKELKVKLQEMEGTVKSKYKASITALEAKIAQLEEQLDNETKERQAACKQVRRTEKKLKDVLLQVDDERRNAEQYKDQADKASTRLKQLKRQLEEAEEEAQRANASRRKLQRELEDATETADAMNREVSSLKNKLRRGDLPFVVPRRMARKGAGDGSDEEVDGKADGAEAKPAE
notes: nonmuscle myosin IIA heavy chain, residues Q1761-E1960; forms a coiled coil and filaments; source: expressed and purified as described previously (Badyal et al., 2011)

Columns and labels:
S100A4 [1] = biological target: B7; experiment: SPR; Biacore X100, S100A4 (0.5 µM) coupled by its His-tags to a Ni-NTA chip; M39 at 1, 3, 9 and 27 nM; 20 mM MES pH 6.1, 150 mM NaCl, 5 mM CaCl2, 0.5 mM TCEP, 50 µM EDTA, 0.005% Surfactant P20; fit to 1:1 Langmuir model; conditions: both partners purified
S100A4 [2] = biological target: B7; experiment: competitive turbidity assay; 12.5 µM M200 diluted into 100 mM NaCl, 20 mM Hepes, 1 mM Mg2+, 100 µM Ca2+; turbidity at 300 nm; 25 µM S100A4 (monomer) added at 800 s, 10 µM M39 added at 1450 s; conditions: both partners purified
S100A4 [3] = biological target: B7; experiment: stopped-flow Quin-2 fluorescence (Ca2+ dissociation); M39 premixed with 13 µM S100A4 (monomer concentration) and 50 µM Ca2+, mixed with 100 µM Quin-2; 20 mM NaCl, 10 mM Hepes, 1 mM MgCl2, pH 7.5, 20 °C; amplitude of the fast phase against [M39]; mutants with up to 50 µM M39; conditions: both partners purified
S100A4 [4] = biological target: B7; experiment: kinetic scheme (estimates or values required for thermodynamic balance); S100A4 dimer with a single Ca2+ bound; values in blue in the scheme, not experimental measurements; conditions: both partners purified
S100A4 [5] = biological target: B7; experiment: kinetic scheme (estimates or values required for thermodynamic balance); apo S100A4 dimer (no Ca2+ bound); values in blue in the scheme, not experimental measurements; conditions: both partners purified
[6] = biological target: T1, S100A4, wild type, Ca^2+-bound dimer (recombinant) (UniProt P26447 1-101); experiment: ITC + SPR + other: kinetic assays; limit that the paper gives as compatible with all its methods; conditions: both partners purified
T1 construct: also called WT; u-S100A4; source: recombinant, unlabeled and 13C,15N-labeled; purified

[7] = biological target: T1, S100A4, wild type, Ca^2+-bound dimer …; experiment: SPR; sensorgrams at nanomolar concentrations of M39; simultaneous fit to a single site-binding model; n = 3; conditions: both partners purified
[8] = biological target: T1, S100A4, wild type, Ca^2+-bound dimer …; experiment: ITC; 10 μM S100A4 in the cell, 75 μM M39 in the syringe; single site-binding model; the paper calls the KD an upper limit; conditions: both partners purified
[9] = biological target: T1, S100A4, wild type, Ca^2+-bound dimer …; experiment: kinetic assays; kinetic assays similar to those of Badyal et al., 2011 (Figures S1I–S1L); conditions: both partners purified
[10] = biological target: T2, S100A4 V77D mutant (studied in vitro) (UniProt P26447 1-101, V77D); experiment: NMR titration; S100A4 V77D and C81D mutants (Figures S3C and S3D); the myosin fragment is not given; conditions: both partners purified
T2 construct: Parent: m1

[11] = biological target: T3, S100A4 C81D mutant (studied in vitro) (UniProt P26447 1-101, C81D); experiment: as above; conditions: both partners purified
T3 construct: Parent: m1

[12] = biological target: the molecule itself; experiment: SEC-MALLS; Superdex 75 10/300, 20 mM MES pH 6.1, 150 mM NaCl, 0.5 mM DTT, 0.7 ml/min; 75 µM M70, 150 µM M111, 50 µM S100A4, 50 µM S100A4 V77D, 50 µM S100A4 C81D loaded
[13] = biological target: the molecule itself; experiment: as above; remark: listed apart in the source
[14] = biological target: T1, S100A4, wild type, Ca^2+-bound dimer …; experiment: SEC-MALS; SEC-MALLS with refractive index and absorbance detection; S100A4 and myosin fragment mixed (1:1 molar ratio for M111); conditions: both partners purified
[15] = biological target: B10; experiment: competitive turbidity assay; 12.5 µM M200 diluted into 100 mM NaCl, 20 mM Hepes, 1 mM Mg2+, 100 µM Ca2+; turbidity at 300 nm; 25 µM S100A4 (monomer) added at 800 s, 10 µM M39 added at 1450 s; conditions: both partners purified
[16] = biological target: the molecule itself; experiment: as above

Binder: B1
Kd (S100A4 [1]): 0.0004 µM
Kd (S100A4 [2]): < 0.01 µM
Kd (S100A4 [3]): < 0.5 µM
stoichiometry N (S100A4 [3]): 2.6 S100A4 monomers per M39
Kd (S100A4 [4]): 1 µM
Kd (S100A4 [5]): 10000 µM

Binder: B2
Kd [6]: ≤ 0.001 µM
Kd [7]: 0.00024 ± 7e-05 µM
Kd [8]: 0.0059 µM and 0.004 µM
stoichiometry N [8]: 0.55 ± 0.06 M39/S100A4
Kd [9]: ~0.0001 µM
Kd [10]: ~100 µM
Kd [11]: ~100 µM

Binder: B3
stoichiometry N [12]: 2

Binder: B4
stoichiometry N [12]: 2

Binder: B5
stoichiometry N [13]: 2

Binder: B6
stoichiometry N [14]: 0.5 myosin fragment per S100A4 subunit

Binder: B7
binding result [15]: binds

Binder: B8
stoichiometry N [13]: 2

Binder: B9
stoichiometry N [14]: 0.5 myosin fragment per S100A4 subunit

Binder: B10
binding result [16]: binds
